From US20130058921A1 (published 2013) come the findings set out here.

In the assay the target is CS1 (human, UniProt Q9NQ25 23-335). Nature of the assay: cell-based or functional assay.

B1: elotuzumab (antibody, V domains shown)
VH: EVQLVESGGGLVQPGGSLRLSCAASGFDFSRYWMSWVRQAPGKGLEWIGEINPDSSTINYAPSLKDKFIISRDNAKNSLYLQMNSLRAEDTAVYYCARPDGNYWYFDVWGQGTLVTVSS
VL: DIQMTQSPSSLSASVGDRVTITCKASQDVGIAVAWYQQKPGKVPKLLIYWASTRHTGVPDRFSGSGSGTDFTLTISSLQPEDVATYYCQQYSSYPYTFGQGTKVEIK
For the molecule B1, the “expanded autologous NK cell-mediated killing of multiple myeloma cells (51Cr release assay)” value is no less than 1.7 fold.
